Measurements taken from the DeepSol protein solubility set.

Assay: soluble on expression in E. coli; label from the status in PepcDB or PDB records

Which “soluble on expression in E. coli” value does the source give for “MGSDKIHHHHHHMNYLEAEDLTTGYGRQVISEALNCSFEAGTITSIIGPNGCGKSTLLKTLARILPAEKGKVFIKNQELQHFSSKEVAQELAILSQTPENTIDLSVFDLVSFGRYPYQSGWKSVTTEDQEYIQWALELTGLTELARESVAILSGGQRQRVWIAMALVQDTDILILDEPTTYLDPAHQLEILNVLKRINQEHQKTIVMTIHDINLASRFSDRVIAMKEGKIINEGTPQEVITVTGLADVFAIQAEISYHSQTQRPLVLSYELMEMELDG” here?
Its value is “not soluble”.

Which “soluble on expression in E. coli” value does the source give for “GPGSYLMLLGLNLIRLLVCSRIAEFHSEMEKIPFATHGSNLYIRFAVGLERYLMEGSYNKLLTSRKKVPSNEYLPVVEMLEQTVRDEVANCIPESYRQLSIPAAQRILMVDTEAKVREIGAKREWALSADGTHFVFTREDDTLQKEIPFKEMIEQHINFVADLQNIV” here?
The value was “not soluble”.

For “MKPKHLLCLSTVVAGLALFSTMTHSVLADDASNPDTILMNNNQANLQRDALVQKLDEGHQQLEAIKHEAKGTDIEATVNKAIDAVDHMKSSIRFNTETIYDFSSIGARVEALSDAIKAIVFSTTQLTHKVEKAHTDTGFAITKLVIRIIDPFASVDAIKAQVQEIKALEEKVINYPDLQPTDRATIYTKAKLNKAIWNTRLERDKKVLGIKSFDVYNRLNKAITHAVGVQLNPTTTVQQVDDEVIAVQNALETALKSLEHHHHHH”, which “soluble on expression in E. coli” value is on record?
The value was “soluble”.

Which “soluble on expression in E. coli” value does the source give for “KYIMHQTTPNYTVTLLAALLPWQFFQGAVQGSTTSIISNSNLIKKIYFPRQIMPLSI” here?
The value was “not soluble”.

With “MAHHHHHHMARHSSTPLSSSVCVRRKTMSSCRTSSFTHTSSRTLARVQRRFSRETTAPRAVLVTLQDARTNPRNAVRRLDDIHIPSLNQRLSSRLQNSSSQSNRDAIRSPSDANCTAQPNSDNANLATAVLSTKTSATQDAKFLLMPSISVSARAPDTAMADASCNTAPSASS” as the sequence, how does the “soluble on expression in E. coli” value read?
The value was “not soluble”.

Which “soluble on expression in E. coli” value does the source give for “SSKVEQLRAQLNERILVLDGGMGTMIQSYRLNEADFRGERFADWPCDLKGNNDLLVLSKPEVIAAIHNAYFEAGADIIETNTFNSTTIAMADYQMESLSAEINFAAAKLARACADEWTARTPEKPRYVAGVLGPTNRTASISPDVNDPAFRNITFDQLVAAYRESTKALVEGGADLILIETVFDTLNAKAAVFAVKTEFEALGVELPIMISGTITDASGRTLSGQTTEAFYNSLRHAEALTFGLNCALGPDELRQYVQELSRIAECYVTAHPNAGLPNAFGEYDLDADTMAKQIREWAEAGFLNIVGGCCGTTPQHIAAMSRAVEGLAPRKLPEIPVACRLSGLEPLNIGEDSLFVNVGERTNVTGSAKF” here?
The value was “not soluble”.

With “AFYNITLRTNDGEKKIECNEDEYILDASERQNVELPYSCRGGSCSTCAAKLVEGEVDNDDQSYLDEEQIKKKYILLCTCYPKSDCVIETHKEDELHDM” as the sequence, how does the “soluble on expression in E. coli” value read?
The value was “soluble”.

For “MGSDKIHHHHHHMLNDFVDRCVWAADLSAEQRDRVRRAMFVREYTQGDYVCHKGEIAEHWLGVLEGIVKITTVSPSGKSVTFTGVPTGGWFGEGAVLKSEIRKYDVMALRRSTIAFLPRDTFQWLLDTSLPFTRFLLTQFNERLGQFIAAVEYERLLDIDSRVARAVSSLFNEHLYPGIGNTLEISQEEIGLLAGISRQRANQALKVLEQQGLVRVDYGVIEVLDLEGLRQYGE”, which “soluble on expression in E. coli” value is on record?
The value was “not soluble”.

With “MGSDKIHHHHHHMSTKSLPMDQILNELRSYDRSEHILNHGFDLGTAWWKIELRKAAWTPSGPLAEPTESVRIDRRRLFGMASEIHTGDIDPVDFTLSVVLWGSGSSRRNNRARIQSIVDVEGRVALRQALELASTDAEASFAAFRTNGRNAFAYLGPAFFTKLMYFAGAGSKSHDAYIVDHRVLQTLSRTPAGAGLRAIHNYGPNTYRRACSALEVIASAARVSGCPELADCTGDLVERWAFDVAGAS” as the sequence, how does the “soluble on expression in E. coli” value read?
The value was “not soluble”.

Which “soluble on expression in E. coli” value does the source give for “SADEEEEVKPILQKLQELVDQLYSFRDCYFETHSVEDAGRKQQDVRKEMEKTLQQMEEVVGSVQGKAQVLMLTGKALNVTPDYSPKAEELLSKAVKLEPELVEAWNQLGEVYWKKGDVAAAHTCFSGALTHCRNKVSLQNLSMVLRQLRTDTEDEHSHHVMDSVRQAKLAVQMDVHDGRSWYILGNSYLSLYFSTGQNPKISQQALSAYAQAEKVDRKASSNPDLHLNRATLHKYEESYGEALEGFSRAAALDPAWPEPRQREQQLLEFLDRLTSLLESKGKVKTKKLQSMLGSLRPAHLGPCSDGHYQSASGQKVTLELKPLSTLQPGVNSGAVILGKVVFSLTTEEKVPFTFGLVDSDGPCYAVMVYNIVQSWGVLIGDSVAIPEPNLRLHRIQHKGKDYSFSSVRVETPLLLVVNGKPQGSSSQAVATVASRPQCE” here?
Its value is “soluble”.

For “MQGKIIKSLAGFYYVESEGQVYQTRARGNFRKRGETPYVGDIVDFSAEDNSEGYILAIHPRKNSLVRPPIVNIDQAVVIMSAKEPEFNSNLLDRFLILLEHKAIHPVVYISKMDLLDSPEEIKAIGRQYQAIGYDFVTSLEELLPLLADKITVFMGQTGVGKSTLLNRIAPELALEIGEISDSLGRGRHTTRAVSFYNTHGGKIADTPGFSSLDYDIANAEDLNEAFPELRRLSHECKFRSCTHTHEPKCAVKAALETGELWPVRYEHYLQFLSEIENRRETYKKVIKRK”, which “soluble on expression in E. coli” value is on record?
Its value is “not soluble”.

Which “soluble on expression in E. coli” value does the source give for “MGTRSKRSERCARCRLHIHRCVCPAMPRYSLATRVVLVMHHREYPKTTATGPLALEILPNSELRIHGEPGRSLNLSDLDTPARRILLLYPGDDVPVLDRELLERDGRPVTLVVPDGTWRQASRMGRRLPGLARAEMVRLPPGPPTEWGVRRENHPQGLATFEAIARALGIIESPDVQSGMEHLFRLMVRQTLGARGCAVDRDLEHHHHHH” here?
Its value is “soluble”.

With “SNAVYGSEVESKIIEFTIVGADEIIAEKLGISVGDFVYKIIRLRIIHSIPTIMEHTWMPIAVIPGVEASVLEESIYSYIQNKLGLKVGTSVVRVKGIRPDDKEKQFMNLTNQDFLMRVEQVAYLTDGRTFEYSYADHLPETFEFETVITAKSYKEA” as the sequence, how does the “soluble on expression in E. coli” value read?
The value was “soluble”.

With “MRLVQDYDQQPIMYDEVELLIQAVDQQPHPLLRLRDKAIIQLGLQGGFRRSELANLKVHYLSFMRDKLKVRLPFSKSNQQGLREWKSLPDSEPFAAYHAVKSWLNESQITDGHLFRSISRDGKTLRPYHVNDNSKPKSTFSRNSGFLNGDDIYRIIKQYCLKAGLPAQYYGAHSLRSGCVTQLHENNKDILYIMARTGHTDPRSLRHYLKPKEDLEHHHHHH” as the sequence, how does the “soluble on expression in E. coli” value read?
The value was “soluble”.

Which “soluble on expression in E. coli” value does the source give for “MTHTLQATNPLDQTAWHAWHFSRNKEAISRTGATSLSATEWISATTLKDAHTFPSLPGRWYKRGGGVVGAHLPPAFATTGTVQLRPGELLIAEDFTLTVIERLGQFALQVFDARNPKRFEFHSIAAFPPSEEWRIEARFFPEPDTVNTAAADGVIVATPTAGWVHFLKGRLDYRLRVTVQKNNLRALFSDNSSTLGVYQHRFVDIPRPDAEGNTIIDFNRAYLPPKALNRKFLCPSPSLNNHLNLTVEAGEKWVVAGGLEHHHHHH” here?
Its value is “soluble”.

Which “soluble on expression in E. coli” value does the source give for “GRHLFVLEREAKLKDYLATADITRVEKGDTKFGVVTAGTCYPYLREVLPNATVLKLGASWPLPDTLLREFCASVDQVFVVEELEPIIEKEVASLGIKVEGKRLFPRAGEFSPEVVRAGFVQAGLLPAPPSYNAWVPEPVVRPPVLCAGCPHTSSFLAVRASGARVAGDIGCYTLAVLDPLRGIDTCVAMGSSIGNAIGMAKAGEAKPVVATIGDSTFLHAGLPALIDAVYNQANIAVVLLDNHITAMTGGQEH” here?
Its value is “not soluble”.

With “MNTETSTQSAPSDTYDTSIYYNSSPRVTANDITTLTSFAAPAPQVLDYANTQYDIYRNQPAYYLPSYAPTAPTTFYSDFANFNVTRSQDFASVPAVANSSDVKPIIIKQEKSTPNATELIIQSRVDSQHEDTTTSTAGGAGVGGPRRTKFVLSVDRRKAATMRERRRLRKVNEAFEVVKQRTCPNPNQRLPKVEILRSAIDYINNLERMLQQAGKMTKIMEQNQHLQMTQQINGAPPHDYVTSSHFASSSYNPENMFDDDDLTDSDDDRDHHKLGNAVDLRRRNSLDRLSRIVASIPNEEAMTDEQLLQPANDVIDGEKKLEML” as the sequence, how does the “soluble on expression in E. coli” value read?
Its value is “not soluble”.

With “MQYCELDLSGQWLDTVYCEENFSDFVFIKFLNPSQFEEKIYCYTLHITKRTLENKRLLLYYEDEFKKHGHDINELVGDGIILRSCWNPRQ” as the sequence, how does the “soluble on expression in E. coli” value read?
Its value is “soluble”.
